In patent US20120172293A1 (Takeda / Millennium, published 2012):
Starred links: 1 amine or outer side, 2 acyl side, 3 side chain; linkers in the order of their positions; H or OH if unused. Non-standard residues stand in square brackets, D forms with d. *: point of attachment. 1Nal = N[C@@H](Cc1cccc2ccccc12)C(=O)O; Lys(Me2) = CN(C)CCCC[C@H](N)C(=O)O; tBuAla = CC(C)(C)C[C@H](N)C(=O)O; 4Pal = N[C@@H](Cc1ccncc1)C(=O)O; Cha = N[C@@H](CC1CCCCC1)C(=O)O; Suc = O=C(CCC(=O)[*:2])[*:1]; dIva = CC[C@@](C)(N)C(=O)O; Isobutyryl = CC(C)C(=O)*; Iva = CC[C@](C)(N)C(=O)O; Nle = CCCC[C@H](N)C(=O)O; Dab = NCC[C@H](N)C(=O)O; Aib = CC(C)(N)C(=O)O; Bz = O=C(c1ccccc1)*; Ahx = NCCCCCC(=O)O

B1: Ac-[D-Pro24, Cha27,28,36, D-Iva29, Aib31]-PYY(23-36) (peptide)
peptide: Ac-S[dP]RH[Cha][Cha][dIva]L[Aib]TRQR[Cha]-NH2
SMILES: CC[C@@](C)(NC(=O)[C@H](CC1CCCCC1)NC(=O)[C@H](CC1CCCCC1)NC(=O)[C@H](Cc1c[nH]cn1)NC(=O)[C@H](CCCNC(=N)N)NC(=O)[C@H]1CCCN1C(=O)[C@H](CO)NC(C)=O)C(=O)N[C@@H](CC(C)C)C(=O)NC(C)(C)C(=O)N[C@H](C(=O)N[C@@H](CCCNC(=N)N)C(=O)N[C@@H](CCC(N)=O)C(=O)N[C@@H](CCCNC(=N)N)C(=O)N[C@@H](CC1CCCCC1)C(N)=O)[C@@H](C)O
B2: Piperidinocarbonyl-[Glu23, D-Pro24, Pya(4)26, Cha27,36, Aib28,31, Lys30]-PYY(23-36) (peptide)
peptide: Piperidinocarbonyl-E[dP]R[4Pal][Cha][Aib]NK[Aib]TRQR[Cha]-NH2
B3: 3-Carboxypropionyl-[Acp22, D-Pro24, Cha27,36, Leu(Me)28, Lys30, Aib31]-PYY(22-36) (peptide)
peptide: Suc-[Ahx]S[dP]RH[Cha][tBuAla]NK[Aib]TRQR[Cha]-NH2
SMILES: C[C@@H](O)[C@H](NC(=O)C(C)(C)NC(=O)[C@H](CCCCN)NC(=O)[C@H](CC(N)=O)NC(=O)[C@H](CC(C)(C)C)NC(=O)[C@H](CC1CCCCC1)NC(=O)[C@H](Cc1c[nH]cn1)NC(=O)[C@H](CCCNC(=N)N)NC(=O)[C@H]1CCCN1C(=O)[C@H](CO)NC(=O)CCCCCNC(=O)CCC(=O)O)C(=O)N[C@@H](CCCNC(=N)N)C(=O)N[C@@H](CCC(N)=O)C(=O)N[C@@H](CCCNC(=N)N)C(=O)N[C@@H](CC1CCCCC1)C(N)=O
B4: Ac-[D-Pro24, D-Iva25, Cha27,28,36, Aib31]-PYY(23-36) (peptide)
peptide: Ac-S[dP][dIva]H[Cha][Cha]NL[Aib]TRQR[Cha]-NH2
SMILES: CC[C@@](C)(NC(=O)[C@H]1CCCN1C(=O)[C@H](CO)NC(C)=O)C(=O)N[C@@H](Cc1c[nH]cn1)C(=O)N[C@@H](CC1CCCCC1)C(=O)N[C@@H](CC1CCCCC1)C(=O)N[C@@H](CC(N)=O)C(=O)N[C@@H](CC(C)C)C(=O)NC(C)(C)C(=O)N[C@H](C(=O)N[C@@H](CCCNC(=N)N)C(=O)N[C@@H](CCC(N)=O)C(=O)N[C@@H](CCCNC(=N)N)C(=O)N[C@@H](CC1CCCCC1)C(N)=O)[C@@H](C)O
B5: Ac-[D-Pro24, Cha27,28,36, Dab30, Aib31]-PYY(23-36) (peptide)
peptide: Ac-S[dP]RH[Cha][Cha]N[Dab][Aib]TRQR[Cha]-NH2
SMILES: CC(=O)N[C@@H](CO)C(=O)N1CCC[C@@H]1C(=O)N[C@@H](CCCNC(=N)N)C(=O)N[C@@H](Cc1c[nH]cn1)C(=O)N[C@@H](CC1CCCCC1)C(=O)N[C@@H](CC1CCCCC1)C(=O)N[C@@H](CC(N)=O)C(=O)N[C@@H](CCN)C(=O)NC(C)(C)C(=O)N[C@H](C(=O)N[C@@H](CCCNC(=N)N)C(=O)N[C@@H](CCC(N)=O)C(=O)N[C@@H](CCCNC(=N)N)C(=O)N[C@@H](CC1CCCCC1)C(N)=O)[C@@H](C)O
B6: Ac-[Acp22, Glu23, D-Pro24, Cha27,28,36, Lys30, Aib31]-PYY(22-36) (peptide)
peptide: Ac-[Ahx]E[dP]RH[Cha][Cha]NK[Aib]TRQR[Cha]-NH2
SMILES: CC(=O)NCCCCCC(=O)N[C@@H](CCC(=O)O)C(=O)N1CCC[C@@H]1C(=O)N[C@@H](CCCNC(=N)N)C(=O)N[C@@H](Cc1c[nH]cn1)C(=O)N[C@@H](CC1CCCCC1)C(=O)N[C@@H](CC1CCCCC1)C(=O)N[C@@H](CC(N)=O)C(=O)N[C@@H](CCCCN)C(=O)NC(C)(C)C(=O)N[C@H](C(=O)N[C@@H](CCCNC(=N)N)C(=O)N[C@@H](CCC(N)=O)C(=O)N[C@@H](CCCNC(=N)N)C(=O)N[C@@H](CC1CCCCC1)C(N)=O)[C@@H](C)O
B7: Benzoyl-[Cha27,36, Nal(1)28, Aib31]-PYY(25-36) (peptide)
peptide: Bz-RH[Cha][1Nal]NL[Aib]TRQR[Cha]-NH2
SMILES: CC(C)C[C@H](NC(=O)[C@H](CC(N)=O)NC(=O)[C@H](Cc1cccc2ccccc12)NC(=O)[C@H](CC1CCCCC1)NC(=O)[C@H](Cc1c[nH]cn1)NC(=O)[C@H](CCCNC(=N)N)NC(=O)c1ccccc1)C(=O)NC(C)(C)C(=O)N[C@H](C(=O)N[C@@H](CCCNC(=N)N)C(=O)N[C@@H](CCC(N)=O)C(=O)N[C@@H](CCCNC(=N)N)C(=O)N[C@@H](CC1CCCCC1)C(N)=O)[C@@H](C)O
B8: Isobutanoyl-[Glu23, D-Pro24, Pya(4)26, Cha27,36, Leu(Me)28, Lys30, Aib31]-PYY(23-36) (peptide)
peptide: Isobutyryl-E[dP]R[4Pal][Cha][tBuAla]NK[Aib]TRQR[Cha]-NH2
SMILES: CC(C)C(=O)N[C@@H](CCC(=O)O)C(=O)N1CCC[C@@H]1C(=O)N[C@@H](CCCNC(=N)N)C(=O)N[C@@H](Cc1ccncc1)C(=O)N[C@@H](CC1CCCCC1)C(=O)N[C@@H](CC(C)(C)C)C(=O)N[C@@H](CC(N)=O)C(=O)N[C@@H](CCCCN)C(=O)NC(C)(C)C(=O)N[C@H](C(=O)N[C@@H](CCCNC(=N)N)C(=O)N[C@@H](CCC(N)=O)C(=O)N[C@@H](CCCNC(=N)N)C(=O)N[C@@H](CC1CCCCC1)C(N)=O)[C@@H](C)O
B9: Benzoyl-[Cha27,28,36, Aib31]-PYY(25-36) (peptide)
peptide: Bz-RH[Cha][Cha]NL[Aib]TRQR[Cha]-NH2
SMILES: CC(C)C[C@H](NC(=O)[C@H](CC(N)=O)NC(=O)[C@H](CC1CCCCC1)NC(=O)[C@H](CC1CCCCC1)NC(=O)[C@H](Cc1c[nH]cn1)NC(=O)[C@H](CCCNC(=N)N)NC(=O)c1ccccc1)C(=O)NC(C)(C)C(=O)N[C@H](C(=O)N[C@@H](CCCNC(=N)N)C(=O)N[C@@H](CCC(N)=O)C(=O)N[C@@H](CCCNC(=N)N)C(=O)N[C@@H](CC1CCCCC1)C(N)=O)[C@@H](C)O
B10: Ac-[D-Pro24, Cha27,28,36, Lys(Me2)30, Aib31]-PYY(23-36) (peptide)
peptide: Ac-S[dP]RH[Cha][Cha]N[Lys(Me2)][Aib]TRQR[Cha]-NH2
SMILES: CC(=O)N[C@@H](CO)C(=O)N1CCC[C@@H]1C(=O)N[C@@H](CCCNC(=N)N)C(=O)N[C@@H](Cc1c[nH]cn1)C(=O)N[C@@H](CC1CCCCC1)C(=O)N[C@@H](CC1CCCCC1)C(=O)N[C@@H](CC(N)=O)C(=O)N[C@@H](CCCCN(C)C)C(=O)NC(C)(C)C(=O)N[C@H](C(=O)N[C@@H](CCCNC(=N)N)C(=O)N[C@@H](CCC(N)=O)C(=O)N[C@@H](CCCNC(=N)N)C(=O)N[C@@H](CC1CCCCC1)C(N)=O)[C@@H](C)O
B11: Ac-[D-Pro24, D-Iva26, Cha27,28,36, Aib31]-PYY(23-36) (peptide)
peptide: Ac-S[dP]R[dIva][Cha][Cha]NL[Aib]TRQR[Cha]-NH2
SMILES: CC[C@@](C)(NC(=O)[C@H](CCCNC(=N)N)NC(=O)[C@H]1CCCN1C(=O)[C@H](CO)NC(C)=O)C(=O)N[C@@H](CC1CCCCC1)C(=O)N[C@@H](CC1CCCCC1)C(=O)N[C@@H](CC(N)=O)C(=O)N[C@@H](CC(C)C)C(=O)NC(C)(C)C(=O)N[C@H](C(=O)N[C@@H](CCCNC(=N)N)C(=O)N[C@@H](CCC(N)=O)C(=O)N[C@@H](CCCNC(=N)N)C(=O)N[C@@H](CC1CCCCC1)C(N)=O)[C@@H](C)O
B12: Ac-[Glu23, D-Pro24, Pya(4)26, Cha27,36, Leu(Me)28, Lys30, Aib31]-PYY(23-36) (peptide)
peptide: Ac-E[dP]R[4Pal][Cha][tBuAla]NK[Aib]TRQR[Cha]-NH2
SMILES: CC(=O)N[C@@H](CCC(=O)O)C(=O)N1CCC[C@@H]1C(=O)N[C@@H](CCCNC(=N)N)C(=O)N[C@@H](Cc1ccncc1)C(=O)N[C@@H](CC1CCCCC1)C(=O)N[C@@H](CC(C)(C)C)C(=O)N[C@@H](CC(N)=O)C(=O)N[C@@H](CCCCN)C(=O)NC(C)(C)C(=O)N[C@H](C(=O)N[C@@H](CCCNC(=N)N)C(=O)N[C@@H](CCC(N)=O)C(=O)N[C@@H](CCCNC(=N)N)C(=O)N[C@@H](CC1CCCCC1)C(N)=O)[C@@H](C)O
B13: Ac-[D-Pro24, Iva25, Cha27,28,36, Aib31]-PYY(23-36) (peptide)
peptide: Ac-S[dP][Iva]H[Cha][Cha]NL[Aib]TRQR[Cha]-NH2
SMILES: CC[C@](C)(NC(=O)[C@H]1CCCN1C(=O)[C@H](CO)NC(C)=O)C(=O)N[C@@H](Cc1c[nH]cn1)C(=O)N[C@@H](CC1CCCCC1)C(=O)N[C@@H](CC1CCCCC1)C(=O)N[C@@H](CC(N)=O)C(=O)N[C@@H](CC(C)C)C(=O)NC(C)(C)C(=O)N[C@H](C(=O)N[C@@H](CCCNC(=N)N)C(=O)N[C@@H](CCC(N)=O)C(=O)N[C@@H](CCCNC(=N)N)C(=O)N[C@@H](CC1CCCCC1)C(N)=O)[C@@H](C)O
B14: Ac-[D-Pro24, Iva26, Cha27,28,36, Aib31]-PYY(23-36) (peptide)
peptide: Ac-S[dP]R[Iva][Cha][Cha]NL[Aib]TRQR[Cha]-NH2
SMILES: CC[C@](C)(NC(=O)[C@H](CCCNC(=N)N)NC(=O)[C@H]1CCCN1C(=O)[C@H](CO)NC(C)=O)C(=O)N[C@@H](CC1CCCCC1)C(=O)N[C@@H](CC1CCCCC1)C(=O)N[C@@H](CC(N)=O)C(=O)N[C@@H](CC(C)C)C(=O)NC(C)(C)C(=O)N[C@H](C(=O)N[C@@H](CCCNC(=N)N)C(=O)N[C@@H](CCC(N)=O)C(=O)N[C@@H](CCCNC(=N)N)C(=O)N[C@@H](CC1CCCCC1)C(N)=O)[C@@H](C)O
B15: Ac-[Glu23, D-Pro24, Nle25, Pya(4)26, Cha27,28,36, Lys30, Aib31]-PYY(23-36) (peptide)
peptide: Ac-E[dP][Nle][4Pal][Cha][Cha]NK[Aib]TRQR[Cha]-NH2
SMILES: CCCC[C@H](NC(=O)[C@H]1CCCN1C(=O)[C@H](CCC(=O)O)NC(C)=O)C(=O)N[C@@H](Cc1ccncc1)C(=O)N[C@@H](CC1CCCCC1)C(=O)N[C@@H](CC1CCCCC1)C(=O)N[C@@H](CC(N)=O)C(=O)N[C@@H](CCCCN)C(=O)NC(C)(C)C(=O)N[C@H](C(=O)N[C@@H](CCCNC(=N)N)C(=O)N[C@@H](CCC(N)=O)C(=O)N[C@@H](CCCNC(=N)N)C(=O)N[C@@H](CC1CCCCC1)C(N)=O)[C@@H](C)O

Legend:
[1] = target: human Y2 receptor (human) (UniProt P49146); test: cell-based or functional assay
[2] = target: human Y2 receptor (human) (UniProt P49146); test: RBA: [125I]-PYY displacement, hY2R/CHO membranes

Chain of human Y2 receptor (human) (P49146 whole entry): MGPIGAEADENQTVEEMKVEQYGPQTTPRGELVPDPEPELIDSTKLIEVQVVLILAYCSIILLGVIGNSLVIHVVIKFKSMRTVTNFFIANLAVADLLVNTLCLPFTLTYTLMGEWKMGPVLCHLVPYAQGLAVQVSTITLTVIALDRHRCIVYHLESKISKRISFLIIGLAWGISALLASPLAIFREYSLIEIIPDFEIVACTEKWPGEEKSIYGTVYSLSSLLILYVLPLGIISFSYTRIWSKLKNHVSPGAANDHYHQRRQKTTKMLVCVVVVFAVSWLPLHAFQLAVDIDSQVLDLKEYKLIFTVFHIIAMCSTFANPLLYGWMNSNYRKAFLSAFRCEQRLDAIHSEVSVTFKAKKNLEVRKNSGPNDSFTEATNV

Binder | GBA EC50 Ratio (vs PYY(3-36)), [35S]GTPγS [1] | IC50 Ratio (vs PYY(3-36)) [2]
B1 | 37 | 71
B2 | 2.4 | 3.3
B3 | 1.2 | 1.7
B4 | 11 | 14
B5 | 1.6 | 2.6
B6 | 1.1 | 1.7
B7 | 25 | 34
B8 | 0.88 | 0.43
B9 | 18 | 28
B10 | 0.7 | 0.8
B11 | 13 | 19
B12 | 0.86 | 0.48
B13 | 3.7 | 4.5
B14 | 4.2 | 5.2
B15 | 1.3 | 2.3
